Assay results reported in patent publication US12448436B2, “Antibody specifically binding to GRP94 or antigen-binding fragment thereof, and uses thereof” (KOOKMIN UNIVERSITY INDUSTRY ACADEMY COOPERATION FOUNDATION, priority 2020, dated 2025).
Changes are numbered by the printed parent chain. “Also recorded” adds a separate entry of the source. Blank lines part the entries; values can stand above or below the molecule they belong to.

What was measured:
LoVo cells = assay: In vitro CRC proliferation assay, LoVo; format: cell-based, human; details: 20 μg/mL; for cell index at the end point: 72 hours, MOCK 3.76±0.19; for cell growth inhibitory ability: end point, relative to the control PBS
Experimental: (§1) The four anti-GRP94 human IgG antibodies B5, E5, 2H5, and 3G7 of the present disclosure were examined in vitro for effect on CRC cell proliferation. […] The culture medium was removed by suction and the cells were washed with 10 mL of phosphate buffered saline (hereinafter PBS). After removal of PBS by suction, the cells were treated 2 mL of TrypLE Express Enzyme at 37° C. for 3 minutes in a 5% CO2 incubator. Thereafter, the cells were added with 8 mL of the culture medium, transferred to 15-mL tube, and centrifuged at 500×g for 5 minutes. After removal of the supernatant, the cells were suspended in the culture medium. From a small portion of the cell suspension, the cells were counted using the Countess II Automated Cell Counter. […] The 96-well plates were mounted on the Incucyte Zoom system. With the microscope magnification set at 4×, images were collected at intervals of 2 hours for 72 hours. From the collected images, cell growth was monitored using the IncuCyte FLR live content imaging system (Essen Bioscience, Ann Arbor, MI, USA).

HCT8 cells = assay: In vitro CRC proliferation assay, HCT8; format: cell-based, human; details: 20 μg/mL; for cell index at the end point: 72 hours, MOCK 4.8±0.25; for cell growth inhibitory ability: end point, relative to the control PBS
Experimental: as §1

HT29 cells = assay: In vitro CRC proliferation assay, HT29; format: cell-based, human; details: 20 μg/mL; for cell index at the end point: 72 hours, MOCK 2.94±0.04; for cell growth inhibitory ability: end point, relative to the control PBS
Experimental: as §1

recombinant rat GRP94 = recombinant rat GRP94 (Rattus norvegicus, UniProt Q66HD0); assay: ELISA binding to recombinant rat GRP94; details: high specificity stated for human and rat antigens
Experimental: (§2) Each well of 96-well plates was coated with 0.1 μg of recombinant human GRP94 (rhGRP94), blocked with 3% (w/v) bovine serum albumin (BSA) in phosphate buffered saline (PBS) for 2 hours at 37° C., and incubated with 100 μL of GRP94 targeting IgG (20 μg/mL) for 2 hours at 37° C. The plates were washed thrice with 0.05% PBS-T, and 100 μL of a 500:1 dilution of the secondary antibody anti-human Fc Ab (Sigma-Aldrich) was added to each well. Incubation at 37° C. for 1 hour was followed by three rounds of washing with 0.05% PBS-T. Then, 100 μL of 3,3′,5,5′-tetramethylbenzidine (1-step ultra TMB) substrate solution was added to each well. Finally, optical densities were measured at 450 nm using a microplate reader (Synergy H1, BioTek).
(§3) After 96-well plates were coated with BSA, recombinant human GRP94, recombinant rat GRP94, and recombinant monkey GRP94, their binding affinity for each antibody (B5, E5, 2H5, or 3G7) was measured by ELISA.

recombinant human GRP94 = target: T1, recombinant human GRP94 (Homo sapiens, UniProt P14625); assay: ELISA binding to recombinant human GRP94; details: high specificity stated for human and rat antigens
T1 construct: made in house; host or cells: Expi293 cells (pcDNA 3.4)
Experimental: as §2
The four GRP94 IgGs (B5, E5, 2H5, and 3G7) of the present disclosure were measured for equilibrium dissociation constant (KD). In this regard, each well of 96-well plates was coated with 100 ng of rhGRP94 and blocked with 3% (w/v) bovine serum albumin (BSA) in PBS at 37° C. for 2 hours. Next, the plates were incubated with a concentration gradient of 0 nM to 500 nM of each clone for the GRP94 IgGs at 37° C. for 2 hours. The use of a secondary antibody and the measurement of optical density were conducted as described for the ELISA.
as §3

[1] = In vivo hepatotoxicity and nephrotoxicity in colorectal xenograft model; set-up: species or system Balb/c nude mice; details: mouse, 10 mg/kg
Experimental: To assay the four antibodies of the present disclosure for in vivo hepatotoxicity and nephrotoxicity, the same xenograft model as in Example 11 weighed every week. After six weeks of the experiment, GOT (glutamic oxaloacetic transaminase), GPT (glutamate pyruvate transaminase), and TBIL (total bilirubin) were measured for hepatotoxicity assay while BUN (blood urea nitrogen) and CRE (creatinine) were measured for nephrotoxicity assay. The results are depicted in FIGS. 27a and 27b.

[2] = system: HCT116 subcutaneous xenograft; assay: Tumor growth inhibition by sole administration, colorectal xenograft model; format: in vivo, Balb/c nude mice; details: 10 mg/kg intravenous twice per week for six weeks; for tumor growth inhibition compared to PBS: n=9
Source text: For use in assaying in-vivo efficacy of the four antibodies of the present disclosure, a subcutaneous xenograft mouse model was established by injecting the metastatic colorectal cancer cell line HCT116 (5×10^6 cells) into 6-week-old Balb/c nude mice.

[3] = Protein aggregation index (UV absorbance 280/340 nm); format: physicochemical; details: antibody in PBS; 100×(Abs340/[Abs280−Abs340]); control HCl-aggregated GRP94 antigen
Experimental: To evaluate the production the antibodies (B5, E5, 2H5, and 3G7) of the present disclosure and the antibody aggregation after purification, each of the antibodies was added to PBS and absorbance was read at 280 nm and 340 nm using NanoDrop 2000 (Thermo Fisher Scientific). The protein aggregation index was calculated from UV absorbance according to the following equation. As a control, the GRP94 antigen that was induced by treatment with HCl to aggregate was used. Protein Aggregation Index=100×(Abs340/[Abs280−Abs340]) Equation 1

HCT116 cells = assay: In vitro CRC proliferation assay, HCT116; format: cell-based, human; details: 20 μg/mL, end point, relative to the control PBS
Experimental: The four anti-GRP94 human IgG antibodies B5, E5, 2H5, and 3G7 of the present disclosure were examined in vitro for effect on CRC cell proliferation. For use in the efficacy assay, the four cetuximab-resistant colorectal cancer cell lines HCT116, HT29, LoVo, and HCT-8 were each grown in a culture medium (HCT116, HCT8, HT29, and LoVo: RPMI1640+10% FBS+1% Penicillin-Streptomycin) at 37° C. in T-75 flask in a 5% CO2 incubator until reaching about 80-90% confluency. The culture medium was removed by suction and the cells were washed with 10 mL of phosphate buffered saline (hereinafter PBS). After removal of PBS by suction, the cells were treated 2 mL of TrypLE Express Enzyme at 37° C. for 3 minutes in a 5% CO2 incubator. Thereafter, the cells were added with 8 mL of the culture medium, transferred to 15-mL tube, and centrifuged at 500×g for 5 minutes. After removal of the supernatant, the cells were suspended in the culture medium. From a small portion of the cell suspension, the cells were counted using the Countess II Automated Cell Counter. […] The 96-well plates were mounted on the Incucyte Zoom system. With the microscope magnification set at 4×, images were collected at intervals of 2 hours for 72 hours. From the collected images, cell growth was monitored using the IncuCyte FLR live content imaging system (Essen Bioscience, Ann Arbor, MI, USA).

Sequence of recombinant rat GRP94 (Q66HD0 22-804): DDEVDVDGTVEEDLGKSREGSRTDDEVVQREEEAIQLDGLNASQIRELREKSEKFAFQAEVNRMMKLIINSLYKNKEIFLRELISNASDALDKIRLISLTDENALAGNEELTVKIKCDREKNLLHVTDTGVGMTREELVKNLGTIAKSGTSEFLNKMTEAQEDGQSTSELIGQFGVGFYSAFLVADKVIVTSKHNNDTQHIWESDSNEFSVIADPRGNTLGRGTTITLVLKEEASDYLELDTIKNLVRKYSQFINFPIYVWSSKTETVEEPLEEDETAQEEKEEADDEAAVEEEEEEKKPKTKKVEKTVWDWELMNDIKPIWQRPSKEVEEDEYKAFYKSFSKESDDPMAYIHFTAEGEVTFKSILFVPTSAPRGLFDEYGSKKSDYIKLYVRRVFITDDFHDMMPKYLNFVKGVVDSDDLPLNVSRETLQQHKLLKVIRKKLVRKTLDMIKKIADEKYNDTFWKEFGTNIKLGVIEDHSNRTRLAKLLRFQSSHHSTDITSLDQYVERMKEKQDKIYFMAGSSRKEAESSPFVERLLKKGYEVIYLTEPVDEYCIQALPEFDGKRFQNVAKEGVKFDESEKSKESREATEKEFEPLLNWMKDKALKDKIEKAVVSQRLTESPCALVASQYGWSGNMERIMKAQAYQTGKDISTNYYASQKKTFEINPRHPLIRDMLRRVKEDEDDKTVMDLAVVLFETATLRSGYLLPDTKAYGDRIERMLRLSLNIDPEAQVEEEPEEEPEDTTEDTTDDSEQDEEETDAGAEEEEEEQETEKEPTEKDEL
T1 sequence (P14625 22-803): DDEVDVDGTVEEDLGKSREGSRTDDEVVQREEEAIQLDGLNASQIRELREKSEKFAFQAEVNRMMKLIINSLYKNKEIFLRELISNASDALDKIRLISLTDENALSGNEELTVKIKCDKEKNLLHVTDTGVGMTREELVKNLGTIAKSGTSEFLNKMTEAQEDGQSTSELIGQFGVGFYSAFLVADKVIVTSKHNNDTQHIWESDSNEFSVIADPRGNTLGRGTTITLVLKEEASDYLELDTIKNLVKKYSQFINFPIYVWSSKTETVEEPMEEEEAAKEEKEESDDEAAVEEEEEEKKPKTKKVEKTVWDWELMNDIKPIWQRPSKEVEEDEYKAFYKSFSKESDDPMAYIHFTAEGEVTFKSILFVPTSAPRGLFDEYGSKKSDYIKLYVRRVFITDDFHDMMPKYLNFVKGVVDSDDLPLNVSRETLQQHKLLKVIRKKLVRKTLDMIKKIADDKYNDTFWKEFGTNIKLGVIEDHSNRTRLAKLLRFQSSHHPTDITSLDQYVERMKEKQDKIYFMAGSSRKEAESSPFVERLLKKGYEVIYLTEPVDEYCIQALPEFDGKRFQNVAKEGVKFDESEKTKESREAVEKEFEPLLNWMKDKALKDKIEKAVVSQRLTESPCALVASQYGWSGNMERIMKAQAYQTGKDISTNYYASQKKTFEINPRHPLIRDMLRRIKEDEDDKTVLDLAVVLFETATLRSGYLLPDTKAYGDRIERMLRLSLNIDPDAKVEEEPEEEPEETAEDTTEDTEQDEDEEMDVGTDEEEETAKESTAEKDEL

binding to recombinant rat GRP94 (recombinant rat GRP94): bind
binding to recombinant human GRP94 (recombinant human GRP94): bind
B1: B5: anti-GRP94 human IgG antibody; CDRs SEQ ID NOS: 1 to 6, VH SEQ ID NO: 7, VL SEQ ID NO: 8 (antibody, V domains shown)
VH: EVQLLESGGGLVQPGGSLRLSCAASGFTFSNYYMSWVRQAPGKGLEWVSGIYPNSGSTYYADSVKGRFTISRDNSKNTLYLQMNSLRAEDTAVYYCARDPLHPARFPFDYWGQGTLVTVSS
VL: QSVLTQPPSASGTPGQRVTISCTGSSSNIGNNAVSWYQQLPGTAPKLLIYADSHRPSGVPDRFSGSKSGTSASLAISGLRSEDEADYYCGAWDASLNAYVFGGGTKLTVL
modifications: Amino acid sequence of heavy chain variable of GRP94 B5; Amino acid sequence of light chain variable of GRP94 B5
cell index at the end point (LoVo cells): 2.69±0.04
cell growth inhibitory ability (LoVo cells): statistically significant; also recorded: excellent inhibitory activity
cell index at the end point (HCT8 cells): 3.15±0.21
cell growth inhibitory ability (HCT8 cells): excellent inhibitory activity
cell index at the end point (HT29 cells): 2.32±0.02
cell growth inhibitory ability (HT29 cells): statistically significant; also recorded: excellent inhibitory activity
changes in body weight [1]: no significant changes
changes in serum levels of liver and kidney functional indices (GOT, GPT, TBIL, BUN, and CREA) [1]: no significant changes
tumor growth inhibition compared to PBS [2]: 30%
protein aggregation index [3]: low
cell growth inhibitory ability (HCT116 cells): statistically significant; also recorded: excellent inhibitory activity

binding to recombinant rat GRP94 (recombinant rat GRP94): bind
binding to recombinant human GRP94 (recombinant human GRP94): bind
B2: E5: anti-GRP94 human IgG antibody; CDRs SEQ ID NOS: 9 to 14, VH SEQ ID NO: 15, VL SEQ ID NO: 16 (antibody, V domains shown)
VH: EVQLLESGGGLVQPGGSLRLSCAASGFTFSNYAMSWVRQAPGKGLEWVSGISSSSGSTYYADSVKGRFTTSRDNSKNTLYLQMNSLRAEDTAVYYCARDRHPFSPNWFDYWGQGTLVTVSS
VL: B1 VL with T23S, S26P, N31S, A33T, S35T, G90A, A91S, A94D, A98G
modifications: Amino acid sequence of heavy chain variable of GRP94 E5; Amino acid sequence of light chain variable of GRP94 E5
cell index at the end point (LoVo cells): 2.73±0.22
cell growth inhibitory ability (LoVo cells): statistically significant; also recorded: excellent inhibitory activity
cell index at the end point (HCT8 cells): 3.33±0.31
cell growth inhibitory ability (HCT8 cells): excellent inhibitory activity
cell index at the end point (HT29 cells): 2.32±0.08
cell growth inhibitory ability (HT29 cells): statistically significant; also recorded: excellent inhibitory activity
changes in body weight [1]: no significant changes
changes in serum levels of liver and kidney functional indices (GOT, GPT, TBIL, BUN, and CREA) [1]: no significant changes
inhibitory activity against tumor growth compared to the controls ([2]; controls PBS and hIgG): did not exhibit inhibitory activity
protein aggregation index [3]: low
cell growth inhibitory ability (HCT116 cells): statistically significant; also recorded: excellent inhibitory activity

binding to recombinant rat GRP94 (recombinant rat GRP94): bind
binding to recombinant human GRP94 (recombinant human GRP94): bind
B3: 3G7: anti-GRP94 human IgG antibody; CDRs SEQ ID NOS: 25 to 30, VH SEQ ID NO: 31, VL SEQ ID NO: 32 (antibody, V domains shown)
VH: EVQLLESGGGLVQPGGSLRLSCAASGFTFSNYSMSWVRQAPGKGLEWVSGIYYGSGNKYYADSVKGRFTISRDNSKNTLYLQMNSLRAEDTAVYYCAKNLASFDYWGQGTLVTVSS
VL: B1 VL with T23S, N31S, A33S, S35N, A51S, D52N, A91T, A94S, N97S, A98G
modifications: Amino acid sequence of heavy chain variable of GRP94 3G7; Amino acid sequence of light chain variable of GRP94 3G7
cell index at the end point (LoVo cells): 2.87±0.08
cell growth inhibitory ability (LoVo cells): statistically significant; also recorded: excellent inhibitory activity
cell index at the end point (HCT8 cells): 3.40±0.16
cell growth inhibitory ability (HCT8 cells): excellent inhibitory activity
cell index at the end point (HT29 cells): 2.17±0.06
cell growth inhibitory ability (HT29 cells): statistically significant; also recorded: excellent inhibitory activity
changes in body weight [1]: no significant changes
changes in serum levels of liver and kidney functional indices (GOT, GPT, TBIL, BUN, and CREA) [1]: no significant changes
tumor growth inhibition compared to PBS [2]: 33%
protein aggregation index [3]: low
cell growth inhibitory ability (HCT116 cells): statistically significant; also recorded: excellent inhibitory activity
